For one data set, the target named is T1, C-reactive protein (CRP) (UniProt P02741 19-224).
T1 sequence: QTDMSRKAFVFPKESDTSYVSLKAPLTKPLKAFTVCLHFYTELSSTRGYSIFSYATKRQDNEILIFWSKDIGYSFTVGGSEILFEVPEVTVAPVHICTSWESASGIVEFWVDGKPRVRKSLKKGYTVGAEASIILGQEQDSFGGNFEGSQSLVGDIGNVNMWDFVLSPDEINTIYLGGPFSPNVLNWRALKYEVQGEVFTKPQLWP
The experiment in a line: surface sandwich chemiluminescence (anti-CRP antibody-HRP); 100 nM CRP, 1 mM Ca2+, 1 mM Mg2+; still binds after two months storage at 4 C; CRP: 20 mM Hepes, 120 mM NaCl, 5 mM KCl, 1 mM CaCl2, 1 mM MgCl2, pH 7.3, room temperature, 30 min; thrombin: buffer with 0.05% Tween 20 (composition and temperature not in material). The settings on record: protein: commercial; chain copies: 5; label: 3' TAMRA on some amounts.

In a further data set the target is thrombin (Thr) (UniProt P00734;P00734 328-363;364-622). The experiment in a line: microring resonator (label-free photonic biosensor); 100 nM thrombin, 0.05% Tween 20, MCH-passivated chip; about 71% retained after buffer wash; CRP: 20 mM Hepes, 120 mM NaCl, 5 mM KCl, 1 mM CaCl2, 1 mM MgCl2, pH 7.3, room temperature, 30 min; thrombin: buffer with 0.05% Tween 20 (composition and tempera).

B1: a-CRP (ssDNA)
DNA: CGAAGGGGATTCGAGGGGTGATTGCGTGCTCCATTTGGTG
modifications: 5' thiol (5ThioMC6-D, reduced), immobilized on mercaptosilane
As to B1, the binding result with C-reactive protein (CRP) is recorded as “binds”.

B2: a-Thr (structured_DNA)
DNA: AGTCCGTGGTAGGGCAGGTTGGGGTGACT
modifications: 5' thiol (5ThioMC6-D, reduced), immobilized on mercaptosilane
For the molecule B2, the binding result with thrombin (Thr) is on record as “binds”.

(Values after article PMC11124806, “Optimization of Surface Functionalizations for Ring Resonator-Based Biosensors”.)
